Measured values reported in PMC10746202.

Legend:
[1] = target: lactoferrin (Homo sapiens) (UniProt P02788); conditions: cited from earlier work
[2] = target: recombinant WU2 (r)PspA possessing only αHD and PRD (Streptococcus pneumoniae serotype 3 strain WU2); test: SPR; Biacore T200; kinetic study, LF at several concentrations in PBS-P+ injected over rPspA amine-coupled to a CM5 chip; 25°C; fitted to a two-state binding curve

Substance: mGAPDH (from UniProt P04406)
- Kd [1]: 43.8 nM

Substance: recombinant lactoferrin (from UniProt P02788 20-710) (natural protein)
- Kd [2]: 3.89 nM
